One molecule from patent US20070196354A1, “Method of treating diabetes by inhibiting degradation of at least one of crebl1, atf6, and hnf-4 alpha by htra” (priority 2003, published 2007) can be followed below.

For the test, the target named is T1, HNF-4α (Homo sapiens, UniProt P41235).
T1 construct: expressed in transfected cells; host or cells: HEK293T
T1 sequence (P41235 10-474): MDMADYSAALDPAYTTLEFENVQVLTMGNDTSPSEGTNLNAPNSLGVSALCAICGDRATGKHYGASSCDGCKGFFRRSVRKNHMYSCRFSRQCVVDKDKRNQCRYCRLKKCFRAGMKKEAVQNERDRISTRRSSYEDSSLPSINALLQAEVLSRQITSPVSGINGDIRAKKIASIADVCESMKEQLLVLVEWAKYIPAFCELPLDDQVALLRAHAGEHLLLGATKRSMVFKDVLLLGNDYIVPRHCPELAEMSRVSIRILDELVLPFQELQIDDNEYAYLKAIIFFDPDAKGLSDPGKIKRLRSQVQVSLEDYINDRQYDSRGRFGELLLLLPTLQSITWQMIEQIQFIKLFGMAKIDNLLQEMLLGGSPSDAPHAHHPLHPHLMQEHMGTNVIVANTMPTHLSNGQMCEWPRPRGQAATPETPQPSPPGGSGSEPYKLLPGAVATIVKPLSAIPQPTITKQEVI
Put plainly: In vitro protease assay, HNF-4α captured on resin. It is filed as biochemical. The note with it: 50 μg/ml, 37° C., overnight (O/N), anti-FLAG detection. As for the experimental part: HNF-4α captured on the resin by immunoprecipitation was used in the experiments in order to eliminate the influence of proteinaceous impurities contained in the HNF-4α soluble fraction. More specifically, 300 μl of HNF-4α soluble fraction was dispensed to six tubes (Nos. 1 to 6), followed by adding 20 μl of protein G sepharose 4 FF (Amersham) of 50% slurry that had been subjected to blocking with BSA, to each of tubes, subjected to overturned mixing at 4° C. for 1 hour, and then subjected to centrifugation (10,000 rpm, 10 sec, 4° C.) to collect the supernatant, and thus the pre-treatment (pre-clean) was performed. The resultant supernatant was mixed with 0.4 μl (2 μg) of anti-FLAG antibody (Sigma) by overturned mixing at 4° C. for 3 hours, followed by adding 20 μl of protein G sepharose 4 FF that had been subjected to blocking with BSA, and then subjected to overturned mixing at 4° C. overnight. Thus, HNF-4α was captured on protein G sepharose 4 FF. […]

B1: mature HtrA2: SEQ ID NO: 4; mature protein generated from HtrA2 precursor by cleavage of N-terminal 133 residues, has protease activity (protein, listed as Homo sapiens)
chain: MAVPSPPPASPRSQYNFIADVVEKTAPAVVYIEILDRHPFLGREVPISNGSGFVVAADGLIVTNAHVVADRRRVRVRLLSGDTYEAVVTAVDPVADIATLRIQTKEPLPTLPLGRSADVRQGEFVVAMGSPFALQNTITSGIVSSAQRPARDLGLPQTNVEYIQTDAAIDFGNSGGPLVNLDGEVIGVNTMKVTAGISFAIPSDRLREFLHRGEKKNSSSGISGSQRRYIGVMMLTLSPSILAELQLREPSFPDVQHGVLIHKVILGSPAHRAGLRPGDVILAIGEQMVQNAEDVYEAVRTQSQLAVQIRRGRETLTLYVTPEVTE
modifications: mature HtrA2
Consider B1, for which the “degradation of HNF-4α (band by western blotting)” value is “the band of HNF-4α was reduced significantly”.
